{"source": "patent US20210253706A1", "key": {"[1]": {"target": "human PD-1 expressed on cells (human) (UniProt Q15116)", "sequence (Q15116 25-288 limits assumed)": "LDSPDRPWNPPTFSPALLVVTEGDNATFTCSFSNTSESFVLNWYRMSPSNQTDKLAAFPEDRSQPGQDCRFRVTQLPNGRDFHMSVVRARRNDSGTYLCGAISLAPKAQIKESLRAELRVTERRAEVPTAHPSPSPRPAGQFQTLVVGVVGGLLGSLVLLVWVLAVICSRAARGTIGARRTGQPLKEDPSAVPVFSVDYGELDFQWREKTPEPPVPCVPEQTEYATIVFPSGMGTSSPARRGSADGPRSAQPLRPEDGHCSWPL", "assay": "flow cytometry; blocking of 0.1 µg/mL soluble PD-L2 (mFc-Alexa647) binding to HEK 293T cells expressing PD-1 and ICOS"}, "[2]": {"target": "human PD-1 expressed on cells (human) (UniProt Q15116)", "assay": "flow cytometry; blocking of 1 µg/mL PD-L1-mFc-Alexa647 binding to HEK 293T cells expressing PD-1 and ICOS"}, "[3]": {"target": "human ICOS expressed on cells (human) (UniProt Q9Y6W8)", "sequence (Q9Y6W8 21-199 limits assumed)": "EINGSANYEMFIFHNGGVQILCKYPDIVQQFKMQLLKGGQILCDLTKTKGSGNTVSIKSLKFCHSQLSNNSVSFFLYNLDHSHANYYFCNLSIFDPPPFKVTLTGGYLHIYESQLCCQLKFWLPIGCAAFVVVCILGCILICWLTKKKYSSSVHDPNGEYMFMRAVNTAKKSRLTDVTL", "assay": "flow cytometry; blocking of 0.5 µg/mL ICOSL-mFc-Alex647 binding to HEK 293T cells expressing PD-1 and ICOS"}, "human PD-1 (human)": {"target": "human PD-1 (human) (UniProt Q15116)", "sequence (Q15116 25-170 limits assumed)": "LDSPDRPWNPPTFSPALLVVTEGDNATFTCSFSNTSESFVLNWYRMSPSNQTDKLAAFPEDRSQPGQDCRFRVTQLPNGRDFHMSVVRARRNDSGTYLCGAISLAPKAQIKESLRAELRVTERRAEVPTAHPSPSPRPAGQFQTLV", "assay": "Octet (BLI), global 1:1 binding model"}, "huICOS": {"target": "huICOS (UniProt Q9Y6W8)", "sequence (Q9Y6W8 21-140 limits assumed)": "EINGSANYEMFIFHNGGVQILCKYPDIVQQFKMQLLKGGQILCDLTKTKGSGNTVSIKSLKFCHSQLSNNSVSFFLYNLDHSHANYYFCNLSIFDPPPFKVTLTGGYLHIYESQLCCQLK", "assay": "Octet (BLI), global 1:1 binding model"}, "[4]": {"target": "cynomolgus PD-1 (Macaca fascicularis (cynomolgus))", "sequence (Q15116 other isoform, or with tags, fused parts or gaps limits assumed)": "as the sequence (Q15116 25-170 limits assumed) above, with D2E, P10A, V19L, T35A, Q75R, T144A counted along it", "assay": "Octet (BLI), global 1:1 binding model"}, "[5]": {"target": "cynomolgus ICOS (Macaca fascicularis (cynomolgus))", "sequence (Q9Y6W8 21-140 H101R limits assumed)": "as the sequence (Q9Y6W8 21-140 limits assumed) above, with H81R counted along it", "assay": "Octet (BLI), global 1:1 binding model"}}, "data": [{"substance": "XmAb23104 (bispecific antibody)", "values": [{"measurement": "EC10", "setting": "[1]", "result": 0.003, "unit": "µg/mL"}, {"measurement": "EC90", "setting": "[1]", "result": 5.3, "unit": "µg/mL"}, {"measurement": "EC90", "setting": "[2]", "result": 7.1, "unit": "µg/mL"}, {"measurement": "EC10", "setting": "[3]", "result": 0.02, "unit": "µg/mL"}, {"measurement": "EC90", "setting": "[3]", "result": 0.6, "unit": "µg/mL"}, {"measurement": "Kd", "setting": "human PD-1 (human)", "result": 2.8, "unit": "nM"}, {"measurement": "Kd", "setting": "huICOS", "result": 2.9, "unit": "nM"}, {"measurement": "Kd", "setting": "[4]", "result": 5.8, "unit": "nM"}, {"measurement": "Kd", "setting": "[5]", "result": 2.6, "unit": "nM"}]}]}
